Experimental data published in IntAct's records for PubMed 28302851.

B1: Circadian clock oscillator protein KaiB (Thermosynechococcus elongatus (strain BP-1)), Q79V61 (parent)
chain: MAPLRKTYVLKLYVAGNTPNSVRALKTLNNILEKEFKGVYALKVIDVLKNPQLAEEDKILATPTLAKVLPPPVRRIIGDLSNREKVLIGLDLLYEEIGDQAEDDLGLE
partner: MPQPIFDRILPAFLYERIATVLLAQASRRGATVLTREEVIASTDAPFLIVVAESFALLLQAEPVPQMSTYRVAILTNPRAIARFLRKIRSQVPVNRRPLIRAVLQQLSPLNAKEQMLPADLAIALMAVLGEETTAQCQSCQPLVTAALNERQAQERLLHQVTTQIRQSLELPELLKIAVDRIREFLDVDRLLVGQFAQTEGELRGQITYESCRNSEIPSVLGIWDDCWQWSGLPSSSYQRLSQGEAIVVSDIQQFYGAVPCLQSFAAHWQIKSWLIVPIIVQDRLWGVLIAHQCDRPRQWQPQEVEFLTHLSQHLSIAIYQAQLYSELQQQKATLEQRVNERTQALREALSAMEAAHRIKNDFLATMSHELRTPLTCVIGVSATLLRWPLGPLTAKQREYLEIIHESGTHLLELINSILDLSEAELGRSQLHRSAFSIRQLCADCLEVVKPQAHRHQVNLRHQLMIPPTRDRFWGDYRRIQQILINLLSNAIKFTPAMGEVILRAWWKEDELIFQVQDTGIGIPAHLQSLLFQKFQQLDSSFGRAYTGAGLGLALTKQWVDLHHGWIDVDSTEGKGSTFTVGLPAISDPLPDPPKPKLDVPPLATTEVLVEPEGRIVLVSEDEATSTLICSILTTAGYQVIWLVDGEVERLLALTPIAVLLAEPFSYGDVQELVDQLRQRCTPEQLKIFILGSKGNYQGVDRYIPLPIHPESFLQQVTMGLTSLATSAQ
B2: Circadian clock oscillator protein KaiB (Thermosynechococcus elongatus (strain BP-1)), Q79V61 (parent)
chain: B1 chain
partner: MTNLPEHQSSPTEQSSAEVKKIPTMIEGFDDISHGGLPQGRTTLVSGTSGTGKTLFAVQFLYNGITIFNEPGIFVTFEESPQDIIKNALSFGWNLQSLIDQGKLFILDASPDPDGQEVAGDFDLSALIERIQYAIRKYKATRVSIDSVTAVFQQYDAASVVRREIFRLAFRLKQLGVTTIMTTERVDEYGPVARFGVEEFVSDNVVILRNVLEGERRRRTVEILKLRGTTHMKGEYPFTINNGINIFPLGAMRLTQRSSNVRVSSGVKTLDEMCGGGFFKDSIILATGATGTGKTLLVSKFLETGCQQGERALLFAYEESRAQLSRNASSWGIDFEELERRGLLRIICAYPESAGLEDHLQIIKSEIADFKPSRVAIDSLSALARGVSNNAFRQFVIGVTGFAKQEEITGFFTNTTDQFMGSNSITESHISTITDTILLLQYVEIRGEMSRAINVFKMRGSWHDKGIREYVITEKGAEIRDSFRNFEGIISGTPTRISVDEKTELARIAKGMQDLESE

Variants of: B1
Conditions: with cika_thevb cikA

Variant | effect of a mutation on the interaction
MAPLRKTYVLKLYVAGNTPNSVRALKTLANILEKEFKGVYALKVIDVLKNPQLAEEDKILATPTLAKVLPPPVRRIIGDLSNREKVLIGLDLLYEEIGDQAEDDLGLE | with no effect

Variants of: B2
Conditions: with kaic_thevb kaiC

Variant | effect of a mutation on the interaction
MAPLRKTAVLKLYVAGNTPNSVRALKTLNNILEKEFKGVYALKVIDVLKNPQLAEEDKILATPTLAKVLPPPVRRIIGDLSNREKVLAGLDLLAEEIGDQAEDDLGLE | with no effect
